In the supplement of paper PMC10567573:

B1: S100A14 (parent)
chain: KIANLGSCNDSKLEFRSFWELIGE
B2: PLAGL1 (parent)
chain: EKPPSGTKEKKHQCDHCERCFYTR

Variants of: B1
Experiment: protein stability index of a GFP-peptide fusion (GPS, HEK-293T) (PSI 1-6); higher = more stable
Settings: c terminus: a fixed tail appended
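Further: lentivirally expressed fusions sorted by FACS into six bins by GFP to DsRed ratio, PSI derived from sequencing read proportions per bin multiplied by bin number.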

Protein stability index of substitutions, site by site:
I22: T 2.25, N 2.61, Q 2.24, C 1.9, V 1.79, P 2.29, M 1.82, S 2.28, A 2.59, F 2.95, G 2.32, D 2.65, K 2.32, L 1.94, Y 2, R 1.98, H 1.9, E 3.19, W 1.67
E24: G 1.36, Y 1.84, S 1.78, A 2.15, C 1.53, K 2.06, Q 2.11, D 2.15, T 1.9, L 1.05, R 1.37, P 1.7, F 1.88, H 2.8, W 2.1, N 2.17, M 2.27, I 2.86
E20: Q 1.62, L 2.77, S 1.94, K 2.22, T 1.59, D 2.56, R 2.45, V 1.73, M 3.34, A 1.64, I 2.29, Y 2.73, F 2.77, P 1.64, C 2.79, G 1.4, N 2.29, H 2.15
G23: I 1.86, M 2.25, Y 1.75, F 1.44, S 1.87, P 2.04, W 2.66, E 2.15, T 2.28, H 2.29, C 1.73, K 1.82, D 1.75, A 1.89, R 1.45, Q 2.19, L 1.62, N 2.21, V 2.18
W19: Y 1.78
L21: G 2.33, C 1.62, R 1.94, Y 2.23, E 2.08, W 1.18, Q 1.76, A 2.74, N 2.55, F 2.16, S 1.86, V 1.63, K 1.86, I 1.54, M 1.23, T 2, H 1.9, D 2.57, P 2.59

Variants of: B2
Experiment: as above
Settings: c terminus: a fixed tail appended

Protein stability index, by site and new letter:
P3: K 3.6, Q 3.8, S 3.78, I 3.58, N 3.94, T 3.68, F 3.54, D 4.19, H 3.33, R 3.75, V 3.97, W 3.13, A 4.29, Y 3.5, G 3.63, M 3.41, E 3.83, L 3.32, C 3.98
K2: R 3.27, M 2.93, F 3.44, Q 4.12, S 3.95, I 3.72, A 3.94, E 3.9, L 3.32, W 3.67, T 3.52, D 4.26, P 4.08, N 4.05, H 3.65, V 3.86, C 3.62, G 3.44, Y 3.17
E1: T 3.36, M 4.15, Y 3.04, H 3.54, K 2.98, C 3.21, W 3.35, S 3.11, A 3.43, F 2.75, P 3.22, D 3.99, L 3.62, G 3.6, I 2.82, R 3.02, Q 3.87, V 3.57, N 3.59
P4: S 3.99, C 3.74, E 3.88, K 3.53, R 4.31, N 3.58, A 3.79, G 3.99, D 4.31, Q 3.48, T 3.44, F 3.44, H 3.56, I 3.57, M 3.45, L 3.28
